Laboratory results reported in patent publication US20240279345A1, “ALPHA 5 BETA 1 INTEGRIN BINDING AGENTS AND USES THEREOF” (PASITHEA THERAPEUTICS CORP., priority 2021, published 2024).

Experiments:
[1] = target: T1, recombinant mouse α5β1 integrin (mouse, UniProt P11688 45-999; P09055 21-728); experiment: ELISA, coated integrin, supernatant 1:10
T1 construct: bought recombinant heterodimer (R&D Systems cat. 7728-A5) coated on the plate; also called rm-α5β1
Protocol: Plates were washed 3 times with Wash Buffer (1× Tris Buffered Saline containing 0.05% Tween20), blocked with 2% BSA in 1×TBS (made from 10× Thermo Scientific Blocker BSA (10×) in TBS; Thermo Fisher Scientific, Waltham, MA, cat. no. 37520) for 2 hours at room temperature (RT) then incubated with hybridoma supernatants diluted 1:10 with Standard Diluent (2% BSA, 1×TBS, 0.05% Tween20). […] Absorbance 450 nm was measured.

[2] = target: recombinant human α4β1 integrin (human) (UniProt P13612); experiment: ELISA, coated integrin, supernatant 1:10
Chain of recombinant human α4β1 integrin (human) (P13612 34-977 limits assumed, form in doubt, chain 1 of 2): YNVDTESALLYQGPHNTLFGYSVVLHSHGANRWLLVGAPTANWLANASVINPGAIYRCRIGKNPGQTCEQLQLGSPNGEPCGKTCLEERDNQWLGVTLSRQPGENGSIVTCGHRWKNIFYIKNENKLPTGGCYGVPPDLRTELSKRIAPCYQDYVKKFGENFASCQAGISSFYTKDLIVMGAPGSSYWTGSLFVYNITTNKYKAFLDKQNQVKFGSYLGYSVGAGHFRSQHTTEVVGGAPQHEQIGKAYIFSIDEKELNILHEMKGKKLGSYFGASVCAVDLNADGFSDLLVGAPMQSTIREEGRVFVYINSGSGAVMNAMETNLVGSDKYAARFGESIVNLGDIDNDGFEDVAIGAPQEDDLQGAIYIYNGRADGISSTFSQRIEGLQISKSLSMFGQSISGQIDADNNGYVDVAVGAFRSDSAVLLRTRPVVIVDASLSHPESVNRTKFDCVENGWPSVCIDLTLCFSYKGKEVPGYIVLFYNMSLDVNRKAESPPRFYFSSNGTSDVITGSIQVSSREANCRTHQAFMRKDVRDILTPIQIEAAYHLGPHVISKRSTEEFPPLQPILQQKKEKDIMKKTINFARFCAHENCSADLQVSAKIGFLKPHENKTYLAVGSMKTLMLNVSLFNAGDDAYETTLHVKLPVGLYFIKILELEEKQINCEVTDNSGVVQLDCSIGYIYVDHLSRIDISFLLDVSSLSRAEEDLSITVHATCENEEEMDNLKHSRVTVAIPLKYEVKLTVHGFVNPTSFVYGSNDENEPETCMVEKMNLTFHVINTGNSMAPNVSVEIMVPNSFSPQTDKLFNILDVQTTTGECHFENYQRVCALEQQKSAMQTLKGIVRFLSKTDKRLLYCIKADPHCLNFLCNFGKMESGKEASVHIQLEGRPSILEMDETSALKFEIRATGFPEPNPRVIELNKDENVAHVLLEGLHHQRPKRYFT
Chain of recombinant human α4β1 integrin (human) (chain, as listed by the source limits assumed, form in doubt, chain 2 of 2): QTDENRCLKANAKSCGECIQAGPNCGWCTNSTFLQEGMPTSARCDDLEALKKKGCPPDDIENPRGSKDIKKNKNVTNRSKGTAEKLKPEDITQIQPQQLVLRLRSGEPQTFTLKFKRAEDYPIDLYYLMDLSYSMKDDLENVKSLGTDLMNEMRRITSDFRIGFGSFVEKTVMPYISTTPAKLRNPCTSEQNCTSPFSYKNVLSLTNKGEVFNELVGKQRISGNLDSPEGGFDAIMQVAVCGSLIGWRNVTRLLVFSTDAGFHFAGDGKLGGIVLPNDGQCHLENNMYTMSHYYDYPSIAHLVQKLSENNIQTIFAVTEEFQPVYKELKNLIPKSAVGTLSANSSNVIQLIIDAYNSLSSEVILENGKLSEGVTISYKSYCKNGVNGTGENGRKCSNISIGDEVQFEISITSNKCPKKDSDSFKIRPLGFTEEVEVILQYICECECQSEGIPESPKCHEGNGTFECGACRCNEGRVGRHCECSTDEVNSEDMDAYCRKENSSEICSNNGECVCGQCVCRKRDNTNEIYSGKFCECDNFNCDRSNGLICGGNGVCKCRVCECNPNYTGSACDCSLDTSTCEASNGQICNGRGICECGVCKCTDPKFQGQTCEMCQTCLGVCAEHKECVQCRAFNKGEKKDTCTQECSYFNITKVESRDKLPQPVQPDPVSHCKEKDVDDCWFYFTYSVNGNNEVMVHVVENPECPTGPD

[3] = target: recombinant human α5β1 integrin (human) (UniProt P08648); experiment: ELISA, coated integrin, supernatant 1:10
Chain of recombinant human α5β1 integrin (human) (P08648 42-995 limits assumed, form in doubt, chain 1 of 2): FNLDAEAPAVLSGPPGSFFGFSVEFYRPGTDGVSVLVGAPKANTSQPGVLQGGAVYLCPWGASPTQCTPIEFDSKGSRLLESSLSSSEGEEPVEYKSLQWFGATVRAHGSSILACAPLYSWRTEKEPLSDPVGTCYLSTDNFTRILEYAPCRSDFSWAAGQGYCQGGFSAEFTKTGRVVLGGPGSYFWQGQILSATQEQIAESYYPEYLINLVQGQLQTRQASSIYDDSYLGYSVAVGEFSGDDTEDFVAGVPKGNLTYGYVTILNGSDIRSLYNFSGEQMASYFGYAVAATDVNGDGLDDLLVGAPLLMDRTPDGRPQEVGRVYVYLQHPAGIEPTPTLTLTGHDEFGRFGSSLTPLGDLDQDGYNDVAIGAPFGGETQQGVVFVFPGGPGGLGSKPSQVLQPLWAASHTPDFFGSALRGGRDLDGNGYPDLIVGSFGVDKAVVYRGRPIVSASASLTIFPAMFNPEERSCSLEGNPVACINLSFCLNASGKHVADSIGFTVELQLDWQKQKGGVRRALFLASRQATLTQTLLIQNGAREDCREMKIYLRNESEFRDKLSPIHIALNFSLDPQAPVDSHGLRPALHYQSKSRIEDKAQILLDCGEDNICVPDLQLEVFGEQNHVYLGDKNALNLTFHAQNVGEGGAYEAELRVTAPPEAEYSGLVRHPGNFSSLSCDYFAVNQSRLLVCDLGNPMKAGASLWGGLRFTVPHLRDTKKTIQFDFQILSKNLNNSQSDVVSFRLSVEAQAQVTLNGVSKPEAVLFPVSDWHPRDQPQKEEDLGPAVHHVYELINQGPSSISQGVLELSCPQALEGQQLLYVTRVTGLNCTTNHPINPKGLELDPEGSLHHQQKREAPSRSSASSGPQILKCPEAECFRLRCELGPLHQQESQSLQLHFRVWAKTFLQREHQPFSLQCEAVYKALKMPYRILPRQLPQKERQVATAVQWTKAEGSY

[4] = target: α5β1 integrin on cells (PMA-activated K562 cells; U87MG cells) (human) (UniProt P08648); experiment: flow cytometry on PMA-activated K562 cells, hybridoma supernatant
[5] = target: purified recombinant human α5β1 integrin heterodimer, 6×His tagged (rh-α5β1; Acro Biosystems, cat. no. IT1-H52W5) (human) (UniProt P08648); experiment: BLI (Octet), supernatant mAb on anti-mouse IgG Fc sensor, 20 nM rh-α5β1
Chain of purified recombinant human α5β1 integrin heterodimer, 6×His tagged (rh-α5β1; Acro Biosystems, cat. no. IT1-H52W5) (human) (P08648 42-995 limits assumed, form in doubt, chain 1 of 2): as above

T1 sequence (P11688 45-999 limits assumed, form in doubt, chain 1 of 2): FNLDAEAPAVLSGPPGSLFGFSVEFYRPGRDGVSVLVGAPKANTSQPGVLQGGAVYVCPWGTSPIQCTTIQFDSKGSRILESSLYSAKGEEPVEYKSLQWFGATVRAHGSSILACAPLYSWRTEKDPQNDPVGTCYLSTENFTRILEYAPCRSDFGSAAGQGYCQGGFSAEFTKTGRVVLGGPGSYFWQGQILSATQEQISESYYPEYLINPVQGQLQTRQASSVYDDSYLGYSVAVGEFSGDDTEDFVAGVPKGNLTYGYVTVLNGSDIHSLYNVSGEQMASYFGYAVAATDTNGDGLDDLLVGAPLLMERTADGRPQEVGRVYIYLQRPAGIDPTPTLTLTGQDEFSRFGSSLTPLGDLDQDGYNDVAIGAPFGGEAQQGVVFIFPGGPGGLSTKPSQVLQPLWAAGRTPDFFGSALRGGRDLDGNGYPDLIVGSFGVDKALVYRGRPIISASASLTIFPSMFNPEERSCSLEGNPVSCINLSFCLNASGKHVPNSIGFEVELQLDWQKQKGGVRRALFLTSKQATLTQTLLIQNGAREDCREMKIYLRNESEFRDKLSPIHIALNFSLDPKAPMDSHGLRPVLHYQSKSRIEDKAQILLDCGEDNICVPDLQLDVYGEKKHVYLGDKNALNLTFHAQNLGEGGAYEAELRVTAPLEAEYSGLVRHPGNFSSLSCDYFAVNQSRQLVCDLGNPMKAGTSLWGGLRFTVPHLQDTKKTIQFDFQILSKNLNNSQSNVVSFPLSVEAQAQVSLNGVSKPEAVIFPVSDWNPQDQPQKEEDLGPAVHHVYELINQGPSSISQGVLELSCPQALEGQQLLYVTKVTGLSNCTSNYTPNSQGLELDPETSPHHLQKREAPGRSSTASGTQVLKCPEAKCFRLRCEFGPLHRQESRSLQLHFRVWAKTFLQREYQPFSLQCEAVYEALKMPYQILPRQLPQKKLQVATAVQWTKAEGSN
T1 sequence (chain, as listed by the source limits assumed, form in doubt, chain 2 of 2): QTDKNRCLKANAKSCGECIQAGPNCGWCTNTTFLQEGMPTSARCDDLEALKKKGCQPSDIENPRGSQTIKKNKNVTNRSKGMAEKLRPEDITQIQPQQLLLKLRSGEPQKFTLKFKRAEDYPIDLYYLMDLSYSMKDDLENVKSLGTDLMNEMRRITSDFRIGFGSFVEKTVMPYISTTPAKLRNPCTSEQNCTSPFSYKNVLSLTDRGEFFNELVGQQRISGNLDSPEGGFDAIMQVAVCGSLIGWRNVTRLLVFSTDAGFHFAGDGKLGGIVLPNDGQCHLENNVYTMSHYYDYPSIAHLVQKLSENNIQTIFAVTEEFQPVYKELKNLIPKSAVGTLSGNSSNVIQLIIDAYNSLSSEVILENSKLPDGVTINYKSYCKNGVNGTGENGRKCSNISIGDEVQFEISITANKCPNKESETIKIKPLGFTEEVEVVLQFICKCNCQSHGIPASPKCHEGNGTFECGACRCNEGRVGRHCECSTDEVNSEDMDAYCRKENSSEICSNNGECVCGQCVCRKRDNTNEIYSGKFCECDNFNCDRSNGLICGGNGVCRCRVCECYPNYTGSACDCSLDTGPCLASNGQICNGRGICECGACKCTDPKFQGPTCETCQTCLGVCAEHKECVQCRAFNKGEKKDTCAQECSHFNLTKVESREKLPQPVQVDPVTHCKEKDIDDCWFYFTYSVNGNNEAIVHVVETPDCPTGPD

B1: A-15C03 (antibody, part only; not given: light chain, V domains shown, part only)
VH: QVQLKESGPGLVAPSQSLSITCTISGFSLTTYGVHWVRQPPGKGLEWLVVIWSDGSTTYNSALKSRLNITKDNSKSQVFLKMNSLQTDDTAMYYCVRHGGLLRRDAMDYWGQGTSVTVSS
Absorbance 450 nm [1]: 0.0709 A450 | Absorbance 450 nm [2]: 0.0793 A450 | Absorbance 450 nm [3]: 0.478 A450 | MFI [4]: 1970 | Kd [5]: 4.67 nM | koff [5]: 0.00129 s⁻¹ | kon [5]: 276000 M⁻¹ s⁻¹
